Patent US20100260763A1 (DOMANTIS, published 2010)
Substitutions are numbered along the chain they refer to.

Experiments:
[1] = target: T1, human TNFR1, soluble recombinant protein (human, UniProt P19438 22-211, limits assumed, biotinylated in the BIAcore assays (coupling via primary amines)); experiment: BIAcore 3000, dAb over biotinylated human TNFR1 (1400 RU) on SA chip, 1:1 fit, 25 C, mean of 3 experiments
T1 construct: also called biotinylated TNFR1; human recombinant E. coli-expressed human TNFR1
T1 sequence (looked up): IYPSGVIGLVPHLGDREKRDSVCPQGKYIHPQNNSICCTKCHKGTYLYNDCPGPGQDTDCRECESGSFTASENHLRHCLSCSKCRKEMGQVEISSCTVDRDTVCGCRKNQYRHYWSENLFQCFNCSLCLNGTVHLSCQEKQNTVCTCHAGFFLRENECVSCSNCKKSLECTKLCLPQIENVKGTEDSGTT

[2] = target: T2, TNFR1-FC fusion (human, UniProt P19438 30-211, limits assumed); experiment: TNFR1 receptor binding assay: TNFR1-Fc on beads, TNF-alpha 10 ng/ml, ABI 8200; average of 3 experiments
T2 construct: not shown: Fc part, captured by goat anti-human IgG; not described further
T2 sequence (looked up): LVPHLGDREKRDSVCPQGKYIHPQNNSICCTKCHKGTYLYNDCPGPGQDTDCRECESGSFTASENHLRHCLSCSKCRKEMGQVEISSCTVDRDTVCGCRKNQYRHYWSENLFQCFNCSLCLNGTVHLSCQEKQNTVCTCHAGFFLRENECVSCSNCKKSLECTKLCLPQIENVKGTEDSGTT

[3] = target: the molecule itself; experiment: analytical ultracentrifugation, sedimentation velocity; monomer/dimer self-association
[4] = target: T2, TNFR1-FC fusion; experiment: TNFR-1 receptor binding assay (RBA): inhibition of the binding of TNF-alpha to TNFR1 by the dAb; sample after 14 days at 50 C in Britton-Robinson buffer, concentration assumed to be 1 mg/ml
[5] = target: the molecule itself; experiment: analytical ultracentrifugation, sedimentation equilibrium; monomer/dimer self-association
[6] = target: T2, TNFR1-FC fusion; experiment: TNFR-1 receptor binding assay (RBA): inhibition of the binding of TNF-alpha to TNFR1 by the dAb; T0 sample
[7] = target: T2, TNFR1-FC fusion; experiment: human TNFR1 receptor binding assay; dAb blocks binding of TNF-alpha (10 ng/ml) to bead-captured TNFR1-Fc; four replicates
[8] = target: the molecule itself; experiment: analytical ultracentrifugation, sedimentation equilibrium; self-association
[9] = target: T3, TNFR1 on MRC-5 cells (UniProt P19438 30-455, limits assumed); experiment: cell-based or functional assay
T3 sequence (looked up): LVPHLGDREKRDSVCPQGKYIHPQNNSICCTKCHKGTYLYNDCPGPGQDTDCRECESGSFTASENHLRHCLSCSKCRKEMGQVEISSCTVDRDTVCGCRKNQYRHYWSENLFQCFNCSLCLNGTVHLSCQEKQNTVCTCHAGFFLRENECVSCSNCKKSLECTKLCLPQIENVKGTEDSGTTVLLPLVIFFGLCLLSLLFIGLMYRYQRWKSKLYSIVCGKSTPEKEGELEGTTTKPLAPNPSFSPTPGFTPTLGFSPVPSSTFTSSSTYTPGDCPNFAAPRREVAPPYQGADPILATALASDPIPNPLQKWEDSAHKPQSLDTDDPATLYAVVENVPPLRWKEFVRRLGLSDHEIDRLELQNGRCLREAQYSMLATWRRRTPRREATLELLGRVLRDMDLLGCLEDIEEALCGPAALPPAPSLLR

[10] = target: the molecule itself; experiment: analytical ultracentrifugation, sedimentation equilibrium; monomer/dimer self-association; self-association (monomer to dimer) of the dAb by AUC sedimentation equilibrium, 0.5 mg/ml to 5 mg/ml
[11] = target: T4, IL-1R1 (UniProt P14778 18-332, limits assumed); experiment: Receptor Binding Assay, inhibition of IL-1 binding to IL-R1
T4 construct: also called IL-R1
T4 sequence (looked up): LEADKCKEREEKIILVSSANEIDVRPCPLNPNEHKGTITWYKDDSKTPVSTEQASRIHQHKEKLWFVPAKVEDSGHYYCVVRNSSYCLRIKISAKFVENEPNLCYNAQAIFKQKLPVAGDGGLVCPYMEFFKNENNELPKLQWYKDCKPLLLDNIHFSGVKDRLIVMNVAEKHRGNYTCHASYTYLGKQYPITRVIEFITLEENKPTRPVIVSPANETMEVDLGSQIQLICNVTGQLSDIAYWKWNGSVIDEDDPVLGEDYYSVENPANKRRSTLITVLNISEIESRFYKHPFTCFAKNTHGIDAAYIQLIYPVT

[12] = target: T5, recombinant human VEGF (human, UniProt P15692-4 27-191, limits assumed, biotinylated in the selections, phage ELISA and BIAcore screening); experiment: receptor binding assay
T5 construct: also called hVEGF; VEGFA
T5 sequence (P15692 other isoform, or with tags, fused parts or gaps limits assumed): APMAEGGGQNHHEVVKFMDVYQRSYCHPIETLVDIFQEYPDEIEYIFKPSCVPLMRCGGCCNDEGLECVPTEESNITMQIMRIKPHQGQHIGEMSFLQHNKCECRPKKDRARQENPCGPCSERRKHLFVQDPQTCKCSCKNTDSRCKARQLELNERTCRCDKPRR

[13] = target: T5, recombinant human VEGF; experiment: BIAcore kinetics
[14] = target: T5, recombinant human VEGF; experiment: RBA assay; taken as the Fc fusion of the row

B1: DOM1h-131-202 (other)
VH: EVQLLESGGGLVQPGGSLRLSCAASGFTFAHETMVWVRQAPGKGLEWVSHIPPDGQDPFYADSVKGRFTISRDNSKNTLYLQMNSLRAEDTAVYYCALLPKRGPWFDYWGQGTLVTVSS
notes: human VH dAb against TNFR1; also called GSK1922567A
Work on B1 yielded a Kd [1] of 0.55 nM, an EC50 [2] of 0.11 nM and a Kd [3] of 1000 nM. For the same binder, the “IC50 (read off the curve)” value [4] was ~0.1 nM, the Kd [5] was 1300 nM and the “IC50 (read off the curve)” value [6] was ~0.1 nM.

B2: DOM1h-131-511 (other)
VH: B1 VH with D54V
notes: human VH domain antibody (dAb) against TNFR1; also called GSK1995056A
B2 was tested, and the Kd [1] was 1.07 nM, the EC50 [2] was 0.19 nM and the “IC50 (read off the curve)” value [7] was ~0.2 nM. For the same binder, the binding result [8] was “binds” and the “ND50 nM, MRC-5 cell-based assay (230307CE)” value (“ND50 nM” for short) [9] was 1.89 nM.

B3: DOM1h-131-206 (other)
VH: B1 VH with Y95H
notes: human VH dAb against TNFR1; also called GSK1995057A
Binder B3 has a Kd [1] of 0.47 nM, an EC50 [2] of 0.07 nM and a Kd [10] of 360000 nM. For the same binder, the “IC50 (read off the curve)” value [7] was ~0.07 nM and the “ND50 nM” value [9] was 0.71 nM.

B4: DOM1h-131-204 (other)
VH: B1 VH with L5S, K101N
B4 was tested, and the “ND50 nM” value [9] was 1.89 nM.

B5: DOM1h-131-203 (other)
VH: B1 VH with L5W, F106I
For B5, the “ND50 nM” value [9] was 2.28 nM.

B6: DOM4-130-54 (other)
VL: DIQMTQSPSSLSASVGDRVTITCRASQDIYLNLDWYQQKPGKAPKLLINFGSELQSGVPSRFSGSGYGTDFTLTISSLQPEDFATYYCQPSFYFPYTFGQGTKVEIKR
notes: VK domain antibody (dAb) against IL-1R1
B6 gave an IC50 [11] of 0.28 nM.

B7: DOM4-130-202 (other)
VL: B6 VL with T22S, N49S, F83S, F94Y
notes: VK dAb against IL-1R1, trypsin-selected variant of DOM4-130-54
In the case of B7, the IC50 [11] is reported as 0.254 nM.

B8: DOM4-130-201 (other)
VL: B6 VL with N49K, S77N, R108W
notes: as for B7
B8 gave an IC50 [11] of 0.257 nM.

B9: DOM15-10 (other)
VL: DIQMTQSPSSLSASVGDRVTITCRASQWIGPELSWYQQKPGKAPKLLIYHTSILQSGVPSRFSGSGSGTDFTLTISSLQPEDFATYYCQQYMFQPRTFGQGTKVEIRR
notes: VK dAb against VEGF
With B9 the EC50 [12] was 10.2 nM and the Kd [13] was 23.6 nM.

B10: DMS1546 (Fc fusion)
VL: B9 VL
modifications: disulfide-linked homodimer of this chain (bivalent dAb-Fc)
notes: dAb-Fc; also called DOM15-10 Fc fusion; not shown: TVAAPS linker and human IgG1 Fc
B10 was tested, and the “Activity (nM), RBA assay” value [14] was 0.913 nM.

B11: DMS1531 (Fc fusion)
VL: B9 VL with S34R, R96M, R108G
modifications: disulfide-linked homodimer of this chain (bivalent dAb-Fc)
notes: dAb-Fc; also called DOM15-10-11 Fc fusion; not shown: TVAAPS linker and human IgG1 Fc
With B11 the “Activity (nM), RBA assay” value [14] was 0.577 nM.

B12: DOM15-10-11 (other)
VL: B9 VL with S34R, R96M, R108G
notes: VK dAb against VEGF, trypsin-selected variant of DOM15-10
For B12, the EC50 [12] was 3.58 nM and the Kd [13] was 14.6 nM.
